Data published in PMC8556256.
One block for each molecule: values may come before it.

Molecular target: Flag-tagged PITX2 R115L (mouse)
Assay: co-IP; 293T cells co-transfected with PITX2-Flag (WT or R115L) and NRF2-HA or YAP1-HA; lysis in 50 mM Tris-HCl pH 7.5, 150 mM NaCl, 1% Nonidet P-40, 0.5% sodium deoxycholate; Flag immunoprecipitation at 4 °C overnight, six washes, blot with anti-HA; relative binding capacity = normalized IP-HA intensity / normalized IP-Flag intensity (ImageJ)

reduction of relative binding capacity against WT PITX2: 89.1%
Molecule: HA-tagged YAP1 (from UniProt P46938 1-488) (natural protein)

reduction of relative binding capacity against WT PITX2: 53.8%
B1: HA-tagged NRF2 (natural protein)
chain: MMDLELPPPGLQSQQDMDLIDILWRQDIDLGVSREVFDFSQRQKDYELEKQKKLEKERQEQLQKEQEKAFFAQFQLDEETGEFLPIQPAQHIQTDTSGSASYSQVAHIPKQDALYFEDCMQLLAETFPFVDDHESLALDIPSHAESSVFTAPHQAQSLNSSLEAAMTDLSSIEQDMEQVWQELFSIPELQCLNTENKQLADTTAVPSPEATLTEMDSNYHFYSSISSLEKEVGNCGPHFLHGFEDSFSSILSTDDASQLTSLDSNPTLNTDFGDEFYSAFIAEPSDGGSMPSSAAISQSLSELLDGTIEGCDLSLCKAFNPKHAEGTMEFNDSDSGISLNTSPSRASPEHSVESSIYGDPPPGFSDSEMEELDSAPGSVKQNGPKAQPAHSPGDTVQPLSPAQGHSAPMRESQCENTTKKEVPVSPGHQKAPFTKDKHSSRLEAHLTRDELRAKALHIPFPVEKIINLPVDDFNEMMSKEQFNEAQLALIRDIRRRGKNKVAAQNCRKRKLENIVELEQDLGHLKDEREKLLREKGENDRNLHLLKRRLSTLYLEVFSMLRDEDGKPYSPSEYSLQQTRDGNVFLVPKSKKPDTKKN
